Numbering of substitutions follows the chain as printed.
T1: NIS (Homo sapiens, UniProt Q92911)
T1 construct: expressed in transfected cells; host or cells: cells transduced with the lentiviral vector
T1 sequence (Q92911 1-643): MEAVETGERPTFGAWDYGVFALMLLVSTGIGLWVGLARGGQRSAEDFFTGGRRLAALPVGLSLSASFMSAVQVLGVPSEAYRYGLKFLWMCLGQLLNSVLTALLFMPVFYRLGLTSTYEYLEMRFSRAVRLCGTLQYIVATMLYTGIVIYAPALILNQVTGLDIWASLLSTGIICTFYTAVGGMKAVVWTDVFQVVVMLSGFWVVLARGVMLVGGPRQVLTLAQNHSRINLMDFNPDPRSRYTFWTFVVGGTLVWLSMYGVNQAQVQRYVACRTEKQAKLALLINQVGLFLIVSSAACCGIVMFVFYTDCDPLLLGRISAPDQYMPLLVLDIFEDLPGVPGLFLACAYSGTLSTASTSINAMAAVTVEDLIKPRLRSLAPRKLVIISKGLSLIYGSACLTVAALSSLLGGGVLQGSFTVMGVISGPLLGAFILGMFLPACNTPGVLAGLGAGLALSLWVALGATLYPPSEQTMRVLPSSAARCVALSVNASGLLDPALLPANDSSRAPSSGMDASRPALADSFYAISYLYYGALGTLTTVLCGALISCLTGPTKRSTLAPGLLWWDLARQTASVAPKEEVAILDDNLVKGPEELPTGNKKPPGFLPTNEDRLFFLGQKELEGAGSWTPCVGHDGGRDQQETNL

B1: NIS-93E: mutant human sodium iodide symporter polypeptide, amino acid sequence SEQ ID NO:1 (FIG. 4) (protein, listed as Homo sapiens)
chain: T1 sequence (Q92911 1-643) with G93E

Assays:
NIS expressing cells = details: less efficiently than iodide; cited from earlier work
NIS = molecular target: T1, NIS; test: iodide mediated quenching of YFP-H148Q/I152L fluorescence; format: cell-based; details: 5 mM KClO4; quenching mediated by 200 mM NaI; FIG. 3
Description: 72 hours post infection, the cells are subjected to two color flow cytometry to determine the percentage of cells that express YFP-H148Q/I152L and are tagged with anti-HA antibody conjugated to Alexa Fluor 647. To determine the percentage hNIS variants that can transport iodide into the cell, infected cells are treated with 200 μM NaI. The quenching of YFP-H148Q/I152L fluorescence (output for intracellular iodide uptake) is analyzed by flow cytometry.
Five million cells are infected at a moi of 1 with the lentiviral library transducing HA-hNIS variants. On the third day post infection, the cells are expanded to increase the number of cells expressing each unique NIS variant to limit the potential of it being lost during the selection procedure. On day 5, infected cells that fluoresce brightly are selected for by fluorescence-activated cell sorting (FACS) and collected in HBSS/HEPES buffer Immediately thereafter, these cells are incubated for 5 minutes with KClO4 at a concentration that inhibits iodide transport by non-mutated NIS. Then, NaI is added to the cells to a finale concentration of […], and the cells are incubated for 10 minutes at 37° C. Cells whose fluorescence is quenched in the presence of KClO4 are selected for by flow sorting. […]

Mel624 cells = test: radiotracer uptake assay in Mel624 cells stably expressing NIS polypeptides; format: cell-based, human; details: for uptake of pertechnetate (Technetium-99m) / uptake of radioiodide (Iodine-125): Mel624 cells stably expressing the NIS polypeptide, 37° C. for 1 hour, +/−300 μM KClO4, gamma counter
Description: Mel624 cells stably expressing a wild-type human NIS polypeptide (Mel-NIS) or one of two mutant NIS polypeptides (Mel-NIS-93E or Mel-NIS-93Q) were plated in 96-well plates at a density that would lead them to confluency on the day of the uptake assay. 1× Hank's balanced salt solution with calcium, magnesium (HBSS) (Cellgro) and 1 mM HEPES was adjusted to pH 7.3 using KOH (HBBS-HEPES) on the day of the assay. Culture medium was removed from the cells, and 150 μL of HBSS-HEPES+/−300 μM KClO4 was added to the wells. The cells were incubated for 10 minutes at room temperature prior to the addition of radiotracer. Radiotracers, ^125I and ^99mTc, were diluted in HBSS-HEPES to about 70,000 to 100,000 CPM/25 μL (CPM, counts per minute). 25 μL of radiotracer was added to the cells in HBSS-HEPES+/−KClO4, and the cells were incubated at 37° C. for 1 hour. The cells were then washed twice with cold HBSS-HEPES buffer and lysed to release the intracellular radiotracer by adding 200 μL 1M NaOH. Lysates were transferred to strip tubes and quantified using a gamma counter.

[1] = system: BxPC3 cells (human pancreatic tumor cells); test: 123I/99mTc subtraction SPECT of BxPC3 tumors expressing NIS or NIS-93E in athymic mice; format: in vivo; details: subcutaneous BxPC3 tumors; four hours after i.p. 123I and 99mTcO4
Description: Image subtraction is used to discriminate a tumor that concentrates only one of two NIS isotopes from organs that concentrate both isotopes (e.g., thyroid gland, stomach, and salivary glands). BxPC3 cells (human pancreatic tumor cells) stably expressing either wild-type human NIS polypeptides or human mutant NIS-93E polypeptides are implanted subcutaneously in the flanks of athymic mice. Once tumors grow to a diameter of 5-8 mm, ^123I/^99mTc subtraction SPECT is performed using a dual-detector SPECT camera. Four hours after the intraperitoneal administration of 250 μCi ^123I sodium iodide and 250 μCi ^99mTcO4, SPECT/CT data are acquired. The SPECT emission data are collected in dual-energy windows to separate the ^99mTc and ^123I counts. The ^99mTc window is centered at 140 keV, and the ^123I window is placed with a 4% offset above 159 keV to minimize the spillover of the ^99mTc photopeak into the much less intense ^123I photopeak. SPECT reconstruction is performed for each of the two acquisition windows. ^123I SPECT voxel intensities on thyroid tissue are normalized to the corresponding ^99mTc SPECT data, and in this way a normalization factor is determined Each voxel in the ^123I SPECT dataset is then multiplied by this normalization factor, and the normalized ^123I SPECT data is subtracted from the ^99mTc SPECT data to create a subtraction SPECT dataset. […]

| Molecule | efficiency of concentration in NIS expressing cells compared to iodide anions (NIS expressing cells) [fold] | effect on iodide mediated quenching of YFP-H148Q/I152L (NIS) | iodide versus TcO4 concentrating efficiency (Mel624 cells) | concentration of Iodine-125 uptake in tumor cells as compared to non-mutated NIS (NIS WT) (Mel624 cells; FIGS. 1A and 1B) | uptake of pertechnetate (Technetium-99m) (Mel624 cells) | uptake of radioiodide (Iodine-125) (Mel624 cells) | uptake of pertechnetate (Technetium-99m) (Mel624 cells; listed as G93E) | uptake of radioiodide (Iodine-125) (Mel624 cells; listed as G93E) | uptake of pertechnetate (Technetium-99m) (Mel624 cells; listed as NIS-G93E) | uptake of radioiodide (Iodine-125) (Mel624 cells; listed as NIS-G93E) | isotope concentration by tumors expressing the polypeptide, subtraction SPECT [1] |
| --- | --- | --- | --- | --- | --- | --- | --- | --- | --- | --- | --- |
| [K+].[O-][Cl+3]([O-])([O-])[O-] [perchlorate, KClO4] | 10 | inhibition | – | – | – | – | – | – | – | – | – |
| B1 | – | – | concentrate iodide with greater efficiency than TcO4 | decrease | not pertechnetate | capable of up-taking radioiodide | not Technetium-99m | selectively transports Iodine-125 | not Technetium-99m | transport selectively Iodine-125 | concentrate only iodide and not pertechnetate |

— patent US20140271456A1, “RADIOTRACER IMAGING USING SODIUM IODIDE SYMPORTER POLYPEPTIDES” (Mayo Foundation for Medical Education and Research, priority 2013, published 2014)
